Experiments:
[1] = Far-UV CD spectroscopy of peptides; assay type: physicochemical; settings: aqueous solution / buffer (Figure S2D)
[2] = salt-free buffer; ref Bowie and Sauer, 1989; cited from earlier work

Row | Substance | Secondary structure by far-UV CD [1] | Unfolding behavior of Arc upon dilution [2]
1 | neuropeptide Y [Pep1] | α helix | 
2 | Arc: 55 aa Arc repressor, a client protein of both chaperones (MKGMSKMPQFNLRWPREVLDLVRKVAEENGRSVNSEIYQRVMESFKKEGRIGA; UniProt P03050 1-53, looked up) |  | rapidly dissociate and slowly unfold upon dilution into salt-free buffer without forming aggregates
